Assay results reported in patent US20230374130A1 (published 2023).

Molecular target: human CD3 epsilon (CD3ε) (human, UniProt P07766 23-207)
Experiment: binding kinetics

human CD3 epsilon (CD3ε), sequence (P07766 23-207): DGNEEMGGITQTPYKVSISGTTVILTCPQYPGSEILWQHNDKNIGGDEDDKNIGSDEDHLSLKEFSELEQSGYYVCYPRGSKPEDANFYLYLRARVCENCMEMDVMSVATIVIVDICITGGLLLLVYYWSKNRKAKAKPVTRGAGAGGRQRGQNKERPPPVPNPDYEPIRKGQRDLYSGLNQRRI

Kd: 12 nM
B1: 160C9_T4h (bispecific antibody)
light: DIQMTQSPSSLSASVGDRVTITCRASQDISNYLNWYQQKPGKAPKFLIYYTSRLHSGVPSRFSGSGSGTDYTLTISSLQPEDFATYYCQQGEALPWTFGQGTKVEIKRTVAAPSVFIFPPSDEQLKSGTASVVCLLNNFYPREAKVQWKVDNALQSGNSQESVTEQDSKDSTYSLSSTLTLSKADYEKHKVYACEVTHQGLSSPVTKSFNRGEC
heavy 1: QVQLVQSGAEVKKPGASVKVSCKASGYKFTSYWIEWVRQAPGQGLEWIGEILPGSDTTNYNEKFKDRVTFTSDTSTSTVYMELSSLRSEDTAVYYCARDRGNYRAWFGYWGQGTLVTVSSASTKGPSVFPLAPSSKSTSGGTAALGCLVKDYFPEPVTVSWNSGALTSGVHTFPAVLQSSGLYSLSSVVTVPSSSLGTQTYICNVNHKPSNTKVDKKVEPKSCDKTHTCPPCPAPEAAGAPSVFLFPPKPKDTLMISRTPEVTCVVVDVSHEDPEVKFNWYVDGVEVHNAKTKPREEQYNSTYRVVSVLTVLHQDWLNGKEYKCKVSNKALPAPIEKTISKAKGQPREPQVYTLPPSRDELTKNQVSLSCAVKGFYPSDIAVEWESNGQPENNYKTTPPVLDSDGSFFLVSKLTVDKSRWQQGNVFSCSVMHEALHNHYTQKSLSLSPG
heavy 2: not shown
